The supplement of paper PMC7877785
± gives the uncertainty stated by the source.

Assay: self-splicing fitness, log relative to wild type (ln ratio); higher = more splicing; Tetrahymena group I intron in knt gene, E. coli kanamycin selection, DiMSum; sequences stand for … in CUCUCU…GGAGGGAAAAGUUAUCAGGCAUGCACCUGGUAGCUAGUCUUUAAACCAAUAGAUUGCAUCGGUUUAAAAGGCAAGACCGUCAAAUUGCGGGAAAGGGGUCAACAGCCGUUCAGUACCAAGUCUCAGGGGAAACUUUGAGAUGGCCUUGCAAAGGGUAUGGUAAUAAGCUGACGGACAUGGUCCUAACCACGCAGCCAAGUCCUAAGUCAACAGAUCUUCUGUUGAUAUGGAUGCAGUUCACAGACUAAAUGUCGGUCGGGGAAGAUGUAUUCUUCUCAUAAGAUAUAGUCGGACCUCUCCUUAAUGGGAGCUAGCGGAUGAAGUGAUGCAACACUGGAGCCGCUGGGAACUAAUUUGUAUGCGAAAGUAUAUUGAUUAGUUUUGGAGUACUCGUGGUCG
Procedure, shortened: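 The eight P1ex-region nucleotides of an intron in the knt kanamycin-resistance gene on pET-22b(+) were all randomised and the library put into E. coli BL21(DE3). Six replicate transformations were grown overnight at 37°C or 30°C on LB agar with or without 25 μg/mL kanamycin, together with 100 μg/mL carbenicillin, 50 μM IPTG and 0.2% rhamnose. Colonies were pooled and amplicon-sequenced on an Illumina HiSeq 2500. Fitness from DiMSum is the error-weighted combination of wild-type-normalised replicate fold changes, kanamycin over none.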

In the case of CUCUAGCAAUAUUACGCAGU, the “self-splicing fitness (ln)” value (30 °C) is reported as -4.21 ± 0.24 and the “self-splicing fitness (ln)” value (37 °C) is reported as -4.07 ± 0.23.

In the case of CUCUAGCAAUAUUACGCAUG, the “self-splicing fitness (ln)” value (30 °C) is reported as -4.85 ± 0.41 and the “self-splicing fitness (ln)” value (37 °C) is reported as -3.07 ± 0.3.

With CUCUAGCAAUAUUACGCCAA the “self-splicing fitness (ln)” value (30 °C) was -2.35 ± 0.47 and the “self-splicing fitness (ln)” value (37 °C) was -2.31 ± 0.45.

With CUCUAGCAAUAUUACGCCAC the “self-splicing fitness (ln)” value (30 °C) was -2.66 ± 0.28.

With CUCUAGCAAUAUUACGCGAC the “self-splicing fitness (ln)” value (30 °C) was -3.14 ± 0.24 and the “self-splicing fitness (ln)” value (37 °C) was -2.75 ± 0.3.

With CUCUAGCAAUAUUACGCGGG the “self-splicing fitness (ln)” value (30 °C) was -3.39 ± 0.18 and the “self-splicing fitness (ln)” value (37 °C) was -1.41 ± 0.14.

With CUCUAGCAAUAUUACGCUAU the “self-splicing fitness (ln)” value (30 °C) was -3.8 ± 0.39 and the “self-splicing fitness (ln)” value (37 °C) was -2.79 ± 0.3.

With CUCUAGCAAUAUUACGGCUU the “self-splicing fitness (ln)” value (30 °C) was -3.45 ± 0.32 and the “self-splicing fitness (ln)” value (37 °C) was -3.52 ± 0.42.

With CUCUAGCAAUAUUACGGUCA the “self-splicing fitness (ln)” value (30 °C) was -3.27 ± 0.29 and the “self-splicing fitness (ln)” value (37 °C) was -3.17 ± 0.37.

With CUCUAGCAAUAUUACGUAAG the “self-splicing fitness (ln)” value (30 °C) was -1.57 ± 0.11 and the “self-splicing fitness (ln)” value (37 °C) was -0.426 ± 0.15.

For CUCUAGCAAUAUUACGUACU, the “self-splicing fitness (ln)” value (30 °C) was -3.33 ± 0.27 and the “self-splicing fitness (ln)” value (37 °C) was -2.39 ± 0.25.

With CUCUAGCAAUAUUACGUCGU the “self-splicing fitness (ln)” value (30 °C) was -3.66 ± 0.26 and the “self-splicing fitness (ln)” value (37 °C) was -4.15 ± 0.36.

For CUCUAGCAAUAUUACGUCUG, the “self-splicing fitness (ln)” value (30 °C) was -2.34 ± 0.12 and the “self-splicing fitness (ln)” value (37 °C) was -2.27 ± 0.18.

With CUCUAGCAAUAUUACGUGAU the “self-splicing fitness (ln)” value (30 °C) was -3.45 ± 0.15 and the “self-splicing fitness (ln)” value (37 °C) was -3.92 ± 0.24.

In the case of CUCUAGCAAUAUUACGUGUG, the “self-splicing fitness (ln)” value (30 °C) is reported as -2.93 ± 0.11 and the “self-splicing fitness (ln)” value (37 °C) is reported as -2.89 ± 0.14.

In the case of CUCUAGCAAUAUUACGUUGC, the “self-splicing fitness (ln)” value (30 °C) is reported as -3.71 ± 0.3 and the “self-splicing fitness (ln)” value (37 °C) is reported as -3.08 ± 0.35.

For CUGAAGCAAUAUUACGAUAU, the “self-splicing fitness (ln)” value (30 °C) was -3.39 ± 0.16 and the “self-splicing fitness (ln)” value (37 °C) was -1.27 ± 0.19.

In the case of CUGAAGCAAUAUUACGAUCG, the “self-splicing fitness (ln)” value (30 °C) is reported as 0.00255 ± 0.12 and the “self-splicing fitness (ln)” value (37 °C) is reported as -0.0487 ± 0.13.

For CUGAAGCAAUAUUACGCGAG, the “self-splicing fitness (ln)” value (30 °C) was -0.671 ± 0.088 and the “self-splicing fitness (ln)” value (37 °C) was -0.527 ± 0.11.

In the case of CUGAAGCAAUAUUACGCGAU, the “self-splicing fitness (ln)” value (30 °C) is reported as -0.358 ± 0.071 and the “self-splicing fitness (ln)” value (37 °C) is reported as 0.0463 ± 0.086.

In the case of CUGAAGCAAUAUUACGCGUG, the “self-splicing fitness (ln)” value (30 °C) is reported as -0.382 ± 0.041 and the “self-splicing fitness (ln)” value (37 °C) is reported as 0.0264 ± 0.063.

For CUGAAGCAAUAUUACGCUCU, the “self-splicing fitness (ln)” value (30 °C) was -3.29 ± 0.25 and the “self-splicing fitness (ln)” value (37 °C) was -3.3 ± 0.47.

In the case of CUGAAGCAAUAUUACGCUUA, the “self-splicing fitness (ln)” value (30 °C) is reported as -3.82 ± 0.3 and the “self-splicing fitness (ln)” value (37 °C) is reported as -2.13 ± 0.23.

In the case of CUGAAGCAAUAUUACGCUUC, the “self-splicing fitness (ln)” value (30 °C) is reported as -3.51 ± 0.19 and the “self-splicing fitness (ln)” value (37 °C) is reported as -2.56 ± 0.19.

In the case of CUGAAGCAAUAUUACGGGAC, the “self-splicing fitness (ln)” value (30 °C) is reported as -0.993 ± 0.072 and the “self-splicing fitness (ln)” value (37 °C) is reported as -0.612 ± 0.1.

For CUGAAGCAAUAUUACGGGCA, the “self-splicing fitness (ln)” value (30 °C) was -3.04 ± 0.22 and the “self-splicing fitness (ln)” value (37 °C) was -1.25 ± 0.2.

With CUGAAGCAAUAUUACGGGGA the “self-splicing fitness (ln)” value (30 °C) was -3.06 ± 0.43 and the “self-splicing fitness (ln)” value (37 °C) was -2.36 ± 0.37.

For CUGAAGCAAUAUUACGGUAG, the “self-splicing fitness (ln)” value (30 °C) was -0.283 ± 0.054 and the “self-splicing fitness (ln)” value (37 °C) was -0.509 ± 0.061.

With CUGAAGCAAUAUUACGUACU the “self-splicing fitness (ln)” value (30 °C) was -3.61 ± 0.31 and the “self-splicing fitness (ln)” value (37 °C) was -2.92 ± 0.34.

In the case of CUGAAGCAAUAUUACGUCCG, the “self-splicing fitness (ln)” value (30 °C) is reported as 0.226 ± 0.083 and the “self-splicing fitness (ln)” value (37 °C) is reported as 0.658 ± 0.13.

For CUGAAGCAAUAUUACGUCUA, the “self-splicing fitness (ln)” value (30 °C) was -0.846 ± 0.077 and the “self-splicing fitness (ln)” value (37 °C) was -0.487 ± 0.1.

With CUGAAGCAAUAUUACGUGCU the “self-splicing fitness (ln)” value (30 °C) was -4.66 ± 0.34 and the “self-splicing fitness (ln)” value (37 °C) was -2.95 ± 0.34.

With CUGAAGCAAUAUUACGUUAA the “self-splicing fitness (ln)” value (30 °C) was -3.39 ± 0.16 and the “self-splicing fitness (ln)” value (37 °C) was -2.65 ± 0.28.

In the case of CUGAAGCAAUAUUACGUUAG, the “self-splicing fitness (ln)” value (30 °C) is reported as -0.376 ± 0.063 and the “self-splicing fitness (ln)” value (37 °C) is reported as 0.25 ± 0.096.

For CUGAAGCAAUAUUACGUUUU, the “self-splicing fitness (ln)” value (30 °C) was -3.46 ± 0.2 and the “self-splicing fitness (ln)” value (37 °C) was -3.22 ± 0.17.

With CUGCAGCAAUAUUACGACGC the “self-splicing fitness (ln)” value (30 °C) was -3.79 ± 0.27 and the “self-splicing fitness (ln)” value (37 °C) was -3.06 ± 0.29.

For CUGCAGCAAUAUUACGACGU, the “self-splicing fitness (ln)” value (30 °C) was -2.98 ± 0.18 and the “self-splicing fitness (ln)” value (37 °C) was -2.49 ± 0.29.

In the case of CUGCAGCAAUAUUACGAGCU, the “self-splicing fitness (ln)” value (30 °C) is reported as -2.93 ± 0.18 and the “self-splicing fitness (ln)” value (37 °C) is reported as -2.25 ± 0.21.

In the case of CUGCAGCAAUAUUACGAUCU, the “self-splicing fitness (ln)” value (30 °C) is reported as -4.3 ± 0.43 and the “self-splicing fitness (ln)” value (37 °C) is reported as -2.46 ± 0.27.

In the case of CUGCAGCAAUAUUACGCCUA, the “self-splicing fitness (ln)” value (37 °C) is reported as -0.55 ± 0.23.

In the case of CUGCAGCAAUAUUACGCCUC, the “self-splicing fitness (ln)” value (30 °C) is reported as -4.25 ± 0.42 and the “self-splicing fitness (ln)” value (37 °C) is reported as -2.16 ± 0.5.

For CUGCAGCAAUAUUACGCGCU, the “self-splicing fitness (ln)” value (30 °C) was -2.68 ± 0.2 and the “self-splicing fitness (ln)” value (37 °C) was -2.27 ± 0.22.

With CUGCAGCAAUAUUACGCGGG the “self-splicing fitness (ln)” value (30 °C) was -3.94 ± 0.23 and the “self-splicing fitness (ln)” value (37 °C) was -1.65 ± 0.18.

With CUGCAGCAAUAUUACGCUAG the “self-splicing fitness (ln)” value (30 °C) was -3.01 ± 0.17 and the “self-splicing fitness (ln)” value (37 °C) was -2.02 ± 0.24.

With CUGCAGCAAUAUUACGCUAU the “self-splicing fitness (ln)” value (30 °C) was -4.29 ± 0.25 and the “self-splicing fitness (ln)” value (37 °C) was -3.04 ± 0.25.

In the case of CUGCAGCAAUAUUACGCUCA, the “self-splicing fitness (ln)” value (37 °C) is reported as -2.21 ± 0.35.

With CUGCAGCAAUAUUACGCUUC the “self-splicing fitness (ln)” value (37 °C) was -1.03 ± 0.21.

With CUGCAGCAAUAUUACGGAAG the “self-splicing fitness (ln)” value (30 °C) was -1.56 ± 0.072 and the “self-splicing fitness (ln)” value (37 °C) was -0.784 ± 0.095.
